Reference: PMC4712673
Where two headings read alike, the source gives them in different places.

Legend:
Experiment in all cases: EMSA
Cus2p WT [1] = target: T1, Cus2p WT (Saccharomyces cerevisiae, UniProt P53830 1-285)
T1 sequence: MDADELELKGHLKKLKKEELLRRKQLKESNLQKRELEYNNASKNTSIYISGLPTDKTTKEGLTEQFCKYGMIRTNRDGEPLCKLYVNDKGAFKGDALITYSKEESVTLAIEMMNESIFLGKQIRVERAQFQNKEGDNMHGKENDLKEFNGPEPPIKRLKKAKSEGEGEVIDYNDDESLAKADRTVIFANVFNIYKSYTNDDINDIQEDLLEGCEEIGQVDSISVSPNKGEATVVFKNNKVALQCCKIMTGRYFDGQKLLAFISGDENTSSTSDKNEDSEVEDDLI

Cus2p WT [2] = target: T1, Cus2p WT; remark: listed apart in the source
Cus2p Y48D = target: T2, Cus2p Y48D (Saccharomyces cerevisiae, UniProt P53830 1-285, Y48D)
T2 sequence: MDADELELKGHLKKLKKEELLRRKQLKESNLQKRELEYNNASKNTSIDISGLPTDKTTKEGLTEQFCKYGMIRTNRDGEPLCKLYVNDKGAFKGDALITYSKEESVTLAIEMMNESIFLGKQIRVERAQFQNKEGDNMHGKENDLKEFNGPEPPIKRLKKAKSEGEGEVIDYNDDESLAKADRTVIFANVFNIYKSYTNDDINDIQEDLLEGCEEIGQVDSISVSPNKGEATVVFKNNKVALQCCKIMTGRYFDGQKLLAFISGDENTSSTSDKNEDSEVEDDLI

Cus2p WT [3] = target: T1, Cus2p WT; remark: listed apart in the source

B1: stem IIa-stabilized U2 core RNA (structured_RNA)
RNA: GUAGUAUCUGUUCUUUGCGGUGUAACAACCGCAAUGACCUCAAUGAGGCUCAUUACCUUUUAAAUACACAUUUUUUGG
Cus2p WT [1]
  binding result: binds

B2: stem IIc-stabilized U2 core RNA (structured_RNA)
RNA: GUAGUAUCUGUUCUUUUCAAUGUAACAACUGAAAUGACCUCAAUGAGGCUCAUUACCUUUUCAGUUGUUACAAUACACAUUUUUUGG
Cus2p WT [2]
  binding result: binds
Cus2p Y48D
  binding result: binds

B3: G53A U2 core RNA (structured_RNA)
RNA: GUAGUAUCUGUUCUUUUCAAUGUAACAACUGAAAUGACCUCAAUGAGGCUCAUUACCUUUUAAUUUGUUACAAUACACAUUUUUUGG
Cus2p WT [3]
  binding result: binds
